Patent US20160108115 (published 2016)

Experiments:
FcγRIIb/c = biological target: T1, FcγRIIb/c (human, UniProt P31994); assay: SPR, pH 7.4
T1 chain: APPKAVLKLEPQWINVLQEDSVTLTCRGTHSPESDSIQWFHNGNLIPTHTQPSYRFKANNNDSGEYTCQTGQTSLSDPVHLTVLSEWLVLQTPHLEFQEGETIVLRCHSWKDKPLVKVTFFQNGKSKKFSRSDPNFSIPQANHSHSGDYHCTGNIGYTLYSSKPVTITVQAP

FcγRIIIb [1] = biological target: T2, FcγRIIIb (human, UniProt O75015); assay: ELISA, immune complexes
T2 chain: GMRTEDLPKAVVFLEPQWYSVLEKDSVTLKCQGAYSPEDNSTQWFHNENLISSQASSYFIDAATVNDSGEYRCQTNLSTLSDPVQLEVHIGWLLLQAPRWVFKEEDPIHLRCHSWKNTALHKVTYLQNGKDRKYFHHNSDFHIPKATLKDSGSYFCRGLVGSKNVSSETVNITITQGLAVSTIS

FcγRIIIa [2] = biological target: T3, FcγRIIIa (human, UniProt P08637); assay: ELISA, immune complexes
FcγRI [3] = biological target: T4, FcγRI (human, UniProt P12314); assay: ELISA, immune complexes
T4 chain: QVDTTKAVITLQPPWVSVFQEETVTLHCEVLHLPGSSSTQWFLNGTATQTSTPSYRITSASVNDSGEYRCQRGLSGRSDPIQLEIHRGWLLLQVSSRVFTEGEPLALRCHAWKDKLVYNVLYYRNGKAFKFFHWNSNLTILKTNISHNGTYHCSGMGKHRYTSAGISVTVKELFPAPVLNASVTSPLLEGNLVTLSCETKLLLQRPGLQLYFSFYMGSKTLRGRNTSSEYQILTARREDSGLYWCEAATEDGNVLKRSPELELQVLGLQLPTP

[4] = biological target: the molecule itself; assay: SPR, pH 7.4, self-association, GMP batch
FcγRIIIb [5] = biological target: T2, FcγRIIIb; assay: SPR, pH 7.4
FcγRIIa = biological target: T5, FcγRIIa (human, UniProt P12318); assay: SPR, pH 7.4
T5 chain: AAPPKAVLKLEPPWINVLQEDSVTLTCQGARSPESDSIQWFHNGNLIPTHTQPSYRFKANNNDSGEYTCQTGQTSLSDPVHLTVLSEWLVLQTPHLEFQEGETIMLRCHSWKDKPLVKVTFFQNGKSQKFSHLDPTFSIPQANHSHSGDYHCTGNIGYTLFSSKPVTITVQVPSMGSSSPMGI

FcγRIIIa [6] = biological target: T3, FcγRIIIa; assay: SPR, pH 7.4
[7] = biological target: the molecule itself; assay: SPR, pH 7.4, self-association, engineering batch
FcγRI [8] = biological target: T4, FcγRI; assay: SPR, pH 7.4

T3 sequence (P08637 17-208): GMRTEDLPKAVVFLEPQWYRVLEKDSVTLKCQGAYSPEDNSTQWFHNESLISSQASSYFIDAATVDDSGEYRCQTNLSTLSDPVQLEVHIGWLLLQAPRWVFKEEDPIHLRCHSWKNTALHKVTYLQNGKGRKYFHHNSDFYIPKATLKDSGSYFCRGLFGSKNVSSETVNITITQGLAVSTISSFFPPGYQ

Kd (FcγRIIb/c): 8.09 µM | binding result (FcγRIIIb [1]): no binding | binding result (FcγRIIIa [2]): no binding | binding result (FcγRI [3]): no binding | Kd (FcγRIIIb [5]): 3.33 µM | Kd (FcγRIIa): 2.31 µM | Kd (FcγRIIIa [6]): 7.23 µM | Kd (FcγRI [8]): 3.75 µM
B1: BNJ441 (full length) (antibody)
chain 1: QVQLVQSGAEVKKPGASVKVSCKASGHIFSNYWIQWVRQAPGQGLEWMGEILPGSGHTEYTENFKDRVTMTRDTSTSTVYMELSSLRSEDTAVYYCARYFFGSSPNWYFDVWGQGTLVTVSSASTKGPSVFPLAPCSRSTSESTAALGCLVKDYFPEPVTVSWNSGALTSGVHTFPAVLQSSGLYSLSSVVTVPSSNFGTQTYTCNVDHKPSNTKVDKTVERKCCVECPPCPAPPVAGPSVFLFPPKPKDTLMISRTPEVTCVVVDVSQEDPEVQFNWYVDGVEVHNAKTKPREEQFNSTYRVVSVLTVLHQDWLNGKEYKCKVSNKGLPSSIEKTISKAKGQPREPQVYTLPPSQEEMTKNQVSLTCLVKGFYPSDIAVEWESNGQPENNYKTTPPVLDSDGSFFLYSRLTVDKSRWQEGNVFSCSVLHEALHSHYTQKSLSLSLGK
chain 2: DIQMTQSPSSLSASVGDRVTITCGASENIYGALNWYQQKPGKAPKLLIYGATNLADGVPSRFSGSGSGTDFTLTISSLQPEDFATYYCQNVLNTPLTFGQGTKVEIKRTVAAPSVFIFPPSDEQLKSGTASVVCLLNNFYPREAKVQWKVDNALQSGNSQESVTEQDSKDSTYSLSSTLTLSKADYEKHKVYACEVTHQGLSSPVTKSFNRGEC
Kd [4]: 270 µM | Kd [7]: 7100 µM
